# Experimental data as given in the RNAGym collection of RNA variant scans (doi:10.7554/elife.80360).
# B1: Hairpin Ribozyme (parent)
# chain: GUCCUCUUUCACGUGCGCGUGAAAGAGAGAAGUGAACCAGAGAAACACACGUUGUGGUAUAUUACCUGGUA
# Variants of: B1
# Test: self-cleavage, relative activity (ratio to wild type); higher = more cleavage; co-transcriptional
row,Variant,self-cleavage
1,GUCCUCUUUCACGUGCGCGUGAAAGAGAGAAGUGAACCAGAGAAAAACACGUUGUGGUAUAUUACCUGCUA [C46A G69C],0.0874
2,GUCCUCUUUCACGUGCGCGUGAAAGAGAGAAGUGAACCAGAGAAAAACACGUUGUGGUAUAUUACCUGUUA [C46A G69U],0.171
3,GUCCUCUUUCACGUGCGCGUGAAAGAGAGAAGUGAACCAGAGAAAAACAAGUUGUGGUAUAUUACCUGGUA [C46A C50A],0.117
4,GUCCUCUUUCACGUGCGCGUGAAAGAGAGAAGUGAACCAGAGAAAAACAGGUUGUGGUAUAUUACCUGGUA [C46A C50G],0.159
5,GUCCUCUUUCACGUGCGCGUGAAAGAGAGAAGUGAACCAGAGAAUCACACGUUGUGGUAUAUUAUCUGGUA [A45U C65U],0.175
6,GUCCUCUUUCACGUGCGCGUGAAAGAGAGAAGUGAACCAGAGAAUUACACGUUGUGGUAUAUUACCUGGUA [A45U C46U],0.12
7,GUCCUCUUUCACGUGCGCGUGAAAGAGAGAAGUGAACCAGAGAAUCACACGUAGUGGUAUAUUACCUGGUA [A45U U53A],0.151
8,GUCCUCUUUCACGUGCGCGUGAAAGAGAGAAGUGAACCAGAGAAUCACACGUGGUGGUAUAUUACCUGGUA [A45U U53G],0.263
9,GUCCUCUUUCACGUGCGCGUGAAAGAGAGAAGUGAACCAGAGAAAAAUACGUUGUGGUAUAUUACCUGGUA [C46A C48U],0.138
10,GUCCUCUUUCACGUGCGCGUGAAAGAGAGAAGUGAACCAGAGAAAAAGACGUUGUGGUAUAUUACCUGGUA [C46A C48G],0.211
11,GUCCUCUUUCACGUGCGCGUGAAAGAGAGAAGUGAACCAGAGAAAAAAACGUUGUGGUAUAUUACCUGGUA [C46A C48A],0.127
12,GUCCUCUUUCACGUGCGCGUGAAAGAGAGAAGUGAACCAGAGAAAGUCACGUUGUGGUAUAUUACCUGGUA [C46G A47U],0.136
13,GUCCUCUUUCACGUGCGCGUGAAAGAGAGAAGUGAACCAGAGAAGCACACGUUGUGGUAUAUUACCUGGAA [A45G U70A],0.184
14,GUCCUCUUUCACGUGCGCGUGAAAGAGAGAAGUGAACCAGAGAAGCACACGUUGUGGUAUAUUACCUGGGA [A45G U70G],0.137
15,GUCCUCUUUCACGUGCGCGUGAAAGAGAGAAGUGAACCAGAGAAAGACACGUUGUGGUGUAUUACCUGGUA [C46G A59G],0.185
16,GUCCUCUUUCACGUGCGCGUGAAAGAGAGAAGUGAACCAGAGAAAGACACGUUGUGGUCUAUUACCUGGUA [C46G A59C],0.219
17,GUCCUCUUUCACGUGCGCGUGAAAGAGAGAAGUGAACCAGAGAAUCACACGUUGUGGUGUAUUACCUGGUA [A45U A59G],0.0526
18,GUCCUCUUUCACGUGCGCGUGAAAGAGAGAAGUGAACCAGAGAAUCACACGUUGUGGUCUAUUACCUGGUA [A45U A59C],0.285
19,GUCCUCUUUCACGUGCGCGUGAAAGAGAGAAGUGAACCAGAGAAUCACACGUUGUGGUUUAUUACCUGGUA [A45U A59U],0.154
20,GUCCUCUUUCACGUGCGCGUGAAAGAGAGAAGUGAACCAGAGAAAAACGCGUUGUGGUAUAUUACCUGGUA [C46A A49G],0.0498
21,GUCCUCUUUCACGUGCGCGUGAAAGAGAGAAGUGAACCAGAGAAAAACUCGUUGUGGUAUAUUACCUGGUA [C46A A49U],0.149
22,GUCCUCUUUCACGUGCGCGUGAAAGAGAGAAGUGAACCAGAGAAAAACACGUUGUGGUAUAUGACCUGGUA [C46A U63G],0.092
23,GUCCUCUUUCACGUGCGCGUGAAAGAGAGAAGUGAACCAGAGAAAAACACGUUGUGGUAUAUUACGUGGUA [C46A C66G],0.14
24,GUCCUCUUUCACGUGCGCGUGAAAGAGAGAAGUGAACCAGAGAAAAACACGUUGUGGUAUAUUACAUGGUA [C46A C66A],0.0901
25,GUCCUCUUUCACGUGCGCGUGAAAGAGAGAAGUGAACCAGAGAAAAACACGUUGUGGUAUAUUACUUGGUA [C46A C66U],0.15
26,GUCCUCUUUCACGUGCGCGUGAAAGAGAGAAGUGAACCAGAGAAAAACACGUUGUGGUAUAUUAUCUGGUA [C46A C65U],0.259

row,Variant,self-cleavage
1,GUCCUCUUUCACGUGCGCGUGAAAGAGAGAAGUGAACCAGAGAAUCACACGUUGUGGUAUAUUACCUGGUG [A45U A71G],0.189
2,GUCCUCUUUCACGUGCGCGUGAAAGAGAGAAGUGAACCAGAGAAUCACACGUUGUGGUAUAUUACCUGGUC [A45U A71C],0.286
3,GUCCUCUUUCACGUGCGCGUGAAAGAGAGAAGUGAACCAGAGAAUCACACGUUGUGGUAUAUUACCUGGUU [A45U A71U],0.156
4,GUCCUCUUUCACGUGCGCGUGAAAGAGAGAAGUGAACCAGAGAAAAACACGUUGUGGUAUGUUACCUGGUA [C46A A61G],0.0812
5,GUCCUCUUUCACGUGCGCGUGAAAGAGAGAAGUGAACCAGAGAAAAACACGUUGUGGUAUAUUACCUGGUU [C46A A71U],0.161
6,GUCCUCUUUCACGUGCGCGUGAAAGAGAGAAGUGAACCAGAGAAUCACACGUUGUGGUAUAUUACCUCGUA [A45U G68C],0.202
7,GUCCUCUUUCACGUGCGCGUGAAAGAGAGAAGUGAACCAGAGAAGCACACGUUGUGGUAAAUUACCUGGUA [A45G U60A],0.105
8,GUCCUCUUUCACGUGCGCGUGAAAGAGAGAAGUGAACCAGAGAAUCACACGUUGUGGUAUACUACCUGGUA [A45U U62C],0.127
9,GUCCUCUUUCACGUGCGCGUGAAAGAGAGAAGUGAACCAGAGAAUCACUCGUUGUGGUAUAUUACCUGGUA [A45U A49U],0.17
10,GUCCUCUUUCACGUGCGCGUGAAAGAGAGAAGUGAACCAGAGAAAAACACGUUGUGGUAGAUUACCUGGUA [C46A U60G],0.102
11,GUCCUCUUUCACGUGCGCGUGAAAGAGAGAAGUGAACCAGAGAAGCACACGUUGUGGGAUAUUACCUGGUA [A45G U58G],0.199
12,GUCCUCUUUCACGUGCGCGUGAAAGAGAGAAGUGAACCAGAGAAAAACACGUUGUGGUAUACUACCUGGUA [C46A U62C],0.193
13,GUCCUCUUUCACGUGCGCGUGAAAGAGAGAAGUGAACCAGAGAAAAACACGUUGUGGUAUAUUACCUGGCA [C46A U70C],0.026
14,GUCCUCUUUCACGUGCGCGUGAAAGAGAGAAGUGAACCAGAGAAAAACACGUUGUGGUAUAUUACCUGGGA [C46A U70G],0.0934
15,GUCCUCUUUCACGUGCGCGUGAAAGAGAGAAGUGAACCAGAGAAAAACACGUUGUGGUAUAUUACCUGGAA [C46A U70A],0.205
16,GUCCUCUUUCACGUGCGCGUGAAAGAGAGAAGUGAACCAGAGAAUCACACGUUGUGGUAAAUUACCUGGUA [A45U U60A],0.147
17,GUCCUCUUUCACGUGCGCGUGAAAGAGAGAAGUGAACCAGAGAAUCACACGUUGUGGUAGAUUACCUGGUA [A45U U60G],0.188
18,GUCCUCUUUCACGUGCGCGUGAAAGAGAGAAGUGAACCAGAGAAUCACACGUUGUGGUAUAUUACCUGCUA [A45U G69C],0.0735
19,GUCCUCUUUCACGUGCGCGUGAAAGAGAGAAGUGAACCAGAGAAAAACACGUUGUCGUAUAUUACCUGGUA [C46A G56C],0.122
20,GUCCUCUUUCACGUGCGCGUGAAAGAGAGAAGUGAACCAGAGAAAAACACGUGGUGGUAUAUUACCUGGUA [C46A U53G],0.159
21,GUCCUCUUUCACGUGCGCGUGAAAGAGAGAAGUGAACCAGAGAAAAACACGUCGUGGUAUAUUACCUGGUA [C46A U53C],0.148
22,GUCCUCUUUCACGUGCGCGUGAAAGAGAGAAGUGAACCAGAGAAAAACACGUAGUGGUAUAUUACCUGGUA [C46A U53A],0.139
23,GUCCUCUUUCACGUGCGCGUGAAAGAGAGAAGUGAACCAGAGAAUCACACUUUGUGGUAUAUUACCUGGUA [A45U G51U],0.209
24,GUCCUCUUUCACGUGCGCGUGAAAGAGAGAAGUGAACCAGAGAAGCACACGUUGUGGUAUAUAACCUGGUA [A45G U63A],0.124
25,GUCCUCUUUCACGUGCGCGUGAAAGAGAGAAGUGAACCAGAGAAAAACACGUUGAGGUAUAUUACCUGGUA [C46A U55A],0.204
26,GUCCUCUUUCACGUGCGCGUGAAAGAGAGAAGUGAACCAGAGAAUCGCACGUUGUGGUAUAUUACCUGGUA [A45U A47G],0.178

row,Variant,self-cleavage
1,GUCCUCUUUCACGUGCGCGUGAAAGAGAGAAGUGAACCAGAGAAUCCCACGUUGUGGUAUAUUACCUGGUA [A45U A47C],0.132
2,GUCCUCUUUCACGUGCGCGUGAAAGAGAGAAGUGAACCAGAGAAUCUCACGUUGUGGUAUAUUACCUGGUA [A45U A47U],0.0501
3,GUCCUCUUUCACGUGCGCGUGAAAGAGAGAAGUGAACCAGAGAAUCACACGCUGUGGUAUAUUACCUGGUA [A45U U52C],0.103
4,GUCCUCUUUCACGUGCGCGUGAAAGAGAGAAGUGAACCAGAGAAUCACACGGUGUGGUAUAUUACCUGGUA [A45U U52G],0.122
5,GUCCUCUUUCACGUGCGCGUGAAAGAGAGAAGUGAACCAGAGAAAAACACGUUGUGGUAUAUUACCCGGUA [C46A U67C],0.11
6,GUCCUCUUUCACGUGCGCGUGAAAGAGAGAAGUGAACCAGAGAAAAACACGUUGUGGUAUAUUACCGGGUA [C46A U67G],0.142
7,GUCCUCUUUCACGUGCGCGUGAAAGAGAGAAGUGAACCAGAGAAAGACUCGUUGUGGUAUAUUACCUGGUA [C46G A49U],0.0713
8,GUCCUCUUUCACGUGCGCGUGAAAGAGAGAAGUGAACCAGAGAAAAACACGUUGUGGCAUAUUACCUGGUA [C46A U58C],0.206
9,GUCCUCUUUCACGUGCGCGUGAAAGAGAGAAGUGAACCAGAGAAAAACACGUUGUGAUAUAUUACCUGGUA [C46A G57A],0.177
10,GUCCUCUUUCACGUGCGCGUGAAAGAGAGAAGUGAACCAGAGAAUCACAUGUUGUGGUAUAUUACCUGGUA [A45U C50U],0.123
11,GUCCUCUUUCACGUGCGCGUGAAAGAGAGAAGUGAACCAGAGAAGCACACGUUGUGGUAUAUUACCGGGUA [A45G U67G],0.0311
12,GUCCUCUUUCACGUGCGCGUGAAAGAGAGAAGUGAACCAGAGAAUCACACGUUGUGGUAUAUUUCCUGGUA [A45U A64U],0.0728
13,GUCCUCUUUCACGUGCGCGUGAAAGAGAGAAGUGAACCAGAGAAUCACACGUUGUGGUAUAUUGCCUGGUA [A45U A64G],0.16
14,GUCCUCUUUCACGUGCGCGUGAAAGAGAGAAGUGAACCAGAGAAUCACACGUUGUGUUAUAUUACCUGGUA [A45U G57U],0.166
15,GUCCUCUUUCACGUGCGCGUGAAAGAGAGAAGUGAACCAGAGAAAAACACGUUGUGGUAUAUUACCUUGUA [C46A G68U],0.137
16,GUCCUCUUUCACGUGCGCGUGAAAGAGAGAAGUGAACCAGAGAAUCAGACGUUGUGGUAUAUUACCUGGUA [A45U C48G],0.14
17,GUCCUCUUUCACGUGCGCGUGAAAGAGAGAAGUGAACCAGAGAAAAACACGGUGUGGUAUAUUACCUGGUA [C46A U52G],0.119
18,GUCCUCUUUCACGUGCGCGUGAAAGAGAGAAGUGAACCAGAGAAAAACACGCUGUGGUAUAUUACCUGGUA [C46A U52C],0.271
19,GUCCUCUUUCACGUGCGCGUGAAAGAGAGAAGUGAACCAGAGAAUCACACGUUGUGGUAUUUUACCUGGUA [A45U A61U],0.122
20,GUCCUCUUUCACGUGCGCGUGAAAGAGAGAAGUGAACCAGAGAAUCACACGUUGUGGUAUCUUACCUGGUA [A45U A61C],0.0246
21,GUCCUCUUUCACGUGCGCGUGAAAGAGAGAAGUGAACCAGAGAAUCACACGUUGUGGUAUAUUACCAGGUA [A45U U67A],0.0841
22,GUCCUCUUUCACGUGCGCGUGAAAGAGAGAAGUGAACCAGAGAAUCACACGUUGUCGUAUAUUACCUGGUA [A45U G56C],0.198
23,GUCCUCUUUCACGUGCGCGUGAAAGAGAGAAGUGAACCAGAGAAAGACACGUUGUGGUAUAUUGCCUGGUA [C46G A64G],0.144
24,GUCCUCUUUCACGUGCGCGUGAAAGAGAGAAGUGAACCAGAGAAAGACACGUUGUGGUAUAUUCCCUGGUA [C46G A64C],0.152
